Source: patent US20240117334A1, “FACTOR B PROTEASES” (Vertex Pharmaceuticals Incorporated, priority 2021, published 2024)

Biological target: Human Factor B (human) (UniProt P00751)
Experiment: cell-based or functional assay

Human Factor B (human), sequence (P00751 26-764 limits assumed): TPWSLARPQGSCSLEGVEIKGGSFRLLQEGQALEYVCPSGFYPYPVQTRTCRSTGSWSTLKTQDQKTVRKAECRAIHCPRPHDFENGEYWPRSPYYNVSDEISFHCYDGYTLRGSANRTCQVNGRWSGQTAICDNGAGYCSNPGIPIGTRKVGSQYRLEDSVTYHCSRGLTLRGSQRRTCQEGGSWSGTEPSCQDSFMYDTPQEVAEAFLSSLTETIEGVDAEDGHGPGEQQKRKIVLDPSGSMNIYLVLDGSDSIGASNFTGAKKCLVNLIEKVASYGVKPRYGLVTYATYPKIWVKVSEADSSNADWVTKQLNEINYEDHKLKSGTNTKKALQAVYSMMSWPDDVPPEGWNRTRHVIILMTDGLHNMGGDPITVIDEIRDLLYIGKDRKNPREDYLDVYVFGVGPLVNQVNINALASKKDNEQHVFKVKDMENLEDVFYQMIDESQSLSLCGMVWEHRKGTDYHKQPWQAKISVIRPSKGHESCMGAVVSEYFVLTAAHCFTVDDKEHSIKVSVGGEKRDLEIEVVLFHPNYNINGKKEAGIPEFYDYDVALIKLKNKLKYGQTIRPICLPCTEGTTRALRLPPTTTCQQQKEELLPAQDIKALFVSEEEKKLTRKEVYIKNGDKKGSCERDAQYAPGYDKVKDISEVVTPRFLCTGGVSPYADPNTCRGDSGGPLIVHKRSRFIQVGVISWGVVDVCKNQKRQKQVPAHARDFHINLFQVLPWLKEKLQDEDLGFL

| fB Cleavage EC50 [nM] | fB Cleavage, 64% A2M-depl plasma EC50 [nM] | fB Cleavage, 64% plasma EC50 [nM] | fB Cleavage, 80% plasma EC50 [nM] | Binder |
| --- | --- | --- | --- | --- |
| 277 |  |  |  | chymase C22S/P38Q/K40M/F41H/L99H/V138I/D175S/A190S/V213A/S218V/A226R (enzyme) IIGGTESKPHSRPYMAYLEIVTSNGQSMHCGGFLIRRNFVLTAAHCAGRSITVTLGAHNITEEEDTWQKLEVIKQFRHPKYNTSTHHHDIMLLKLKEKASLTLAVGTLPFPSQFNFVPPGRMCRIAGWGRTGVLKPGSDTLQEVKLRLMDPQACSHFRSFDHNLQLCVGNPRKTKSSFKGDSGGPLLCAGVAQGIASYGRVDAKPPRVFTRISHYRPWINQILQAN |
| 57 |  |  |  | chymase C22S/P38Q/K40L/F41R/L99Y/V138I/F173Y/D175N/A190S/V213A/S218V/A226R (enzyme) IIGGTESKPHSRPYMAYLEIVTSNGQSLRCGGFLIRRNFVLTAAHCAGRSITVTLGAHNITEEEDTWQKLEVIKQFRHPKYNTSTYHHDIMLLKLKEKASLTLAVGTLPFPSQFNFVPPGRMCRIAGWGRTGVLKPGSDTLQEVKLRLMDPQACSHYRNFDHNLQLCVGNPRKTKSSFKGDSGGPLLCAGVAQGIASYGRVDAKPPRVFTRISHYRPWINQILQAN |
| 121 |  |  |  | chymase C22S/P38Q/K40A/F41K/L99N/V138I/D175H/A190S/V213A/S218V/A226R (enzyme) IIGGTESKPHSRPYMAYLEIVTSNGQSAKCGGFLIRRNFVLTAAHCAGRSITVTLGAHNITEEEDTWQKLEVIKQFRHPKYNTSTNHHDIMLLKLKEKASLTLAVGTLPFPSQFNFVPPGRMCRIAGWGRTGVLKPGSDTLQEVKLRLMDPQACSHFRHFDHNLQLCVGNPRKTKSSFKGDSGGPLLCAGVAQGIASYGRVDAKPPRVFTRISHYRPWINQILQAN |
| 121 |  |  |  | chymase C22S/P38Q/K40L/F41R/V138I/F173Y/D175H/A190S/V213A/S218T/A226R (enzyme) IIGGTESKPHSRPYMAYLEIVTSNGQSLRCGGFLIRRNFVLTAAHCAGRSITVTLGAHNITEEEDTWQKLEVIKQFRHPKYNTSTLHHDIMLLKLKEKASLTLAVGTLPFPSQFNFVPPGRMCRIAGWGRTGVLKPGSDTLQEVKLRLMDPQACSHYRHFDHNLQLCVGNPRKTKSSFKGDSGGPLLCAGVAQGIASYGRTDAKPPRVFTRISHYRPWINQILQAN |
| 465 |  |  |  | chymase C22S/P38Q/K40M/F41R/V138I/F173Y/D175Y/A190S/V213A/S218I/A226R (enzyme) IIGGTESKPHSRPYMAYLEIVTSNGQSMRCGGFLIRRNFVLTAAHCAGRSITVTLGAHNITEEEDTWQKLEVIKQFRHPKYNTSTLHHDIMLLKLKEKASLTLAVGTLPFPSQFNFVPPGRMCRIAGWGRTGVLKPGSDTLQEVKLRLMDPQACSHYRYFDHNLQLCVGNPRKTKSSFKGDSGGPLLCAGVAQGIASYGRIDAKPPRVFTRISHYRPWINQILQAN |
| 150 |  |  |  | chymase C22S/P38Q/K40Q/F41R/L99H/V138I/F173Y/D175S/A190S/V213A/S218V/A226R (enzyme) IIGGTESKPHSRPYMAYLEIVTSNGQSQRCGGFLIRRNFVLTAAHCAGRSITVTLGAHNITEEEDTWQKLEVIKQFRHPKYNTSTHHHDIMLLKLKEKASLTLAVGTLPFPSQFNFVPPGRMCRIAGWGRTGVLKPGSDTLQEVKLRLMDPQACSHYRSFDHNLQLCVGNPRKTKSSFKGDSGGPLLCAGVAQGIASYGRVDAKPPRVFTRISHYRPWINQILQAN |
| 472 |  |  |  | chymase C22S/P38Q/K40M/F41R/L99S/V138I/F173Y/D175N/A190S/V213A/S218V/A226R (enzyme) IIGGTESKPHSRPYMAYLEIVTSNGQSMRCGGFLIRRNFVLTAAHCAGRSITVTLGAHNITEEEDTWQKLEVIKQFRHPKYNTSTSHHDIMLLKLKEKASLTLAVGTLPFPSQFNFVPPGRMCRIAGWGRTGVLKPGSDTLQEVKLRLMDPQACSHYRNFDHNLQLCVGNPRKTKSSFKGDSGGPLLCAGVAQGIASYGRVDAKPPRVFTRISHYRPWINQILQAN |

Further lines, the binder ahead of its results:

| Binder | fB Cleavage EC50 [nM] | fB Cleavage, 64% A2M-depl plasma EC50 [nM] | fB Cleavage, 64% plasma EC50 [nM] | fB Cleavage, 80% plasma EC50 [nM] |
| --- | --- | --- | --- | --- |
| chymase C22S/P38Q/K40M/F41R/L99W/V138I/F173M/D175H/A190S/V213A/S218T/A226R (enzyme) IIGGTESKPHSRPYMAYLEIVTSNGQSMRCGGFLIRRNFVLTAAHCAGRSITVTLGAHNITEEEDTWQKLEVIKQFRHPKYNTSTWHHDIMLLKLKEKASLTLAVGTLPFPSQFNFVPPGRMCRIAGWGRTGVLKPGSDTLQEVKLRLMDPQACSHMRHFDHNLQLCVGNPRKTKSSFKGDSGGPLLCAGVAQGIASYGRTDAKPPRVFTRISHYRPWINQILQAN | 414 |  |  |  |
| chymase C22S/P38Q/K40M/F41K/L99W/V138I/F173M/A190S/V213A/S218N/A226R (enzyme) IIGGTESKPHSRPYMAYLEIVTSNGQSMKCGGFLIRRNFVLTAAHCAGRSITVTLGAHNITEEEDTWQKLEVIKQFRHPKYNTSTWHHDIMLLKLKEKASLTLAVGTLPFPSQFNFVPPGRMCRIAGWGRTGVLKPGSDTLQEVKLRLMDPQACSHMRDFDHNLQLCVGNPRKTKSSFKGDSGGPLLCAGVAQGIASYGRNDAKPPRVFTRISHYRPWINQILQAN | 956 |  |  |  |
| chymase C22S/P38Q/K40M/F41R/L99N/V138I/F173Y/D175W/A190S/V213A/S218T/A226R (enzyme) IIGGTESKPHSRPYMAYLEIVTSNGQSMRCGGFLIRRNFVLTAAHCAGRSITVTLGAHNITEEEDTWQKLEVIKQFRHPKYNTSTNHHDIMLLKLKEKASLTLAVGTLPFPSQFNFVPPGRMCRIAGWGRTGVLKPGSDTLQEVKLRLMDPQACSHYRWFDHNLQLCVGNPRKTKSSFKGDSGGPLLCAGVAQGIASYGRTDAKPPRVFTRISHYRPWINQILQAN | 500 |  |  |  |
| chymase C22S/P38Q/K40A/F41R/L99H/V138I/D175N/A190S/V213A/S218I/A226R (enzyme) IIGGTESKPHSRPYMAYLEIVTSNGQSARCGGFLIRRNFVLTAAHCAGRSITVTLGAHNITEEEDTWQKLEVIKQFRHPKYNTSTHHHDIMLLKLKEKASLTLAVGTLPFPSQFNFVPPGRMCRIAGWGRTGVLKPGSDTLQEVKLRLMDPQACSHFRNFDHNLQLCVGNPRKTKSSFKGDSGGPLLCAGVAQGIASYGRIDAKPPRVFTRISHYRPWINQILQAN | 170 |  |  |  |
| chymase C22S/P38Q/K40M/F41R/L99N/V138I/F173Y/D175F/A190S/V213A/S218V/A226R (enzyme) IIGGTESKPHSRPYMAYLEIVTSNGQSMRCGGFLIRRNFVLTAAHCAGRSITVTLGAHNITEEEDTWQKLEVIKQFRHPKYNTSTNHHDIMLLKLKEKASLTLAVGTLPFPSQFNFVPPGRMCRIAGWGRTGVLKPGSDTLQEVKLRLMDPQACSHYRFFDHNLQLCVGNPRKTKSSFKGDSGGPLLCAGVAQGIASYGRVDAKPPRVFTRISHYRPWINQILQAN | 193 |  |  |  |
| chymase C22S/P38Q/K40M/F41R/V138I/F173S/D175Y/A190S/V213A/S218V/A226R (enzyme) IIGGTESKPHSRPYMAYLEIVTSNGQSMRCGGFLIRRNFVLTAAHCAGRSITVTLGAHNITEEEDTWQKLEVIKQFRHPKYNTSTLHHDIMLLKLKEKASLTLAVGTLPFPSQFNFVPPGRMCRIAGWGRTGVLKPGSDTLQEVKLRLMDPQACSHSRYFDHNLQLCVGNPRKTKSSFKGDSGGPLLCAGVAQGIASYGRVDAKPPRVFTRISHYRPWINQILQAN | 287 |  |  |  |
| chymase C22S/P38Q/K40M/F41R/L99H/V138I/D175Q/A190S/V213A/S218V/A226R (enzyme) IIGGTESKPHSRPYMAYLEIVTSNGQSMRCGGFLIRRNFVLTAAHCAGRSITVTLGAHNITEEEDTWQKLEVIKQFRHPKYNTSTHHHDIMLLKLKEKASLTLAVGTLPFPSQFNFVPPGRMCRIAGWGRTGVLKPGSDTLQEVKLRLMDPQACSHFRQFDHNLQLCVGNPRKTKSSFKGDSGGPLLCAGVAQGIASYGRVDAKPPRVFTRISHYRPWINQILQAN | 301 |  |  |  |
| chymase C22S/P38Q/K40I/F41R/L99N/V138I/D175T/A190S/V213A/S218V/A226R (enzyme) IIGGTESKPHSRPYMAYLEIVTSNGQSIRCGGFLIRRNFVLTAAHCAGRSITVTLGAHNITEEEDTWQKLEVIKQFRHPKYNTSTNHHDIMLLKLKEKASLTLAVGTLPFPSQFNFVPPGRMCRIAGWGRTGVLKPGSDTLQEVKLRLMDPQACSHFRTFDHNLQLCVGNPRKTKSSFKGDSGGPLLCAGVAQGIASYGRVDAKPPRVFTRISHYRPWINQILQAN | 203 |  |  |  |
| chymase C22S/P38Q/K40M/F41R/V138I/F173L/D175R/A190S/V213A/S218T/A226R (enzyme) IIGGTESKPHSRPYMAYLEIVTSNGQSMRCGGFLIRRNFVLTAAHCAGRSITVTLGAHNITEEEDTWQKLEVIKQFRHPKYNTSTLHHDIMLLKLKEKASLTLAVGTLPFPSQFNFVPPGRMCRIAGWGRTGVLKPGSDTLQEVKLRLMDPQACSHLRRFDHNLQLCVGNPRKTKSSFKGDSGGPLLCAGVAQGIASYGRTDAKPPRVFTRISHYRPWINQILQAN | 51 |  |  |  |
| chymase C22S/P38Q/K40L/F41R/L99F/V138I/F173L/D175N/A190S/V213A/A226R (enzyme) IIGGTESKPHSRPYMAYLEIVTSNGQSLRCGGFLIRRNFVLTAAHCAGRSITVTLGAHNITEEEDTWQKLEVIKQFRHPKYNTSTFHHDIMLLKLKEKASLTLAVGTLPFPSQFNFVPPGRMCRIAGWGRTGVLKPGSDTLQEVKLRLMDPQACSHLRNFDHNLQLCVGNPRKTKSSFKGDSGGPLLCAGVAQGIASYGRSDAKPPRVFTRISHYRPWINQILQAN | 631 |  |  |  |
| chymase C22S/P38Q/K40Q/F41R/V138I/F173Y/D175N/A190S/V213A/S218V/A226R (enzyme) IIGGTESKPHSRPYMAYLEIVTSNGQSQRCGGFLIRRNFVLTAAHCAGRSITVTLGAHNITEEEDTWQKLEVIKQFRHPKYNTSTLHHDIMLLKLKEKASLTLAVGTLPFPSQFNFVPPGRMCRIAGWGRTGVLKPGSDTLQEVKLRLMDPQACSHYRNFDHNLQLCVGNPRKTKSSFKGDSGGPLLCAGVAQGIASYGRVDAKPPRVFTRISHYRPWINQILQAN | 100 |  |  |  |
| chymase C22S/P38Q/K40A/F41R/L99H/V138I/F173Y/D175N/A190S/V213A/S218L/A226R (enzyme) IIGGTESKPHSRPYMAYLEIVTSNGQSARCGGFLIRRNFVLTAAHCAGRSITVTLGAHNITEEEDTWQKLEVIKQFRHPKYNTSTHHHDIMLLKLKEKASLTLAVGTLPFPSQFNFVPPGRMCRIAGWGRTGVLKPGSDTLQEVKLRLMDPQACSHYRNFDHNLQLCVGNPRKTKSSFKGDSGGPLLCAGVAQGIASYGRLDAKPPRVFTRISHYRPWINQILQAN | 139 |  |  |  |
| chymase C22S/P38Q/K40V/F41R/V138I/F173S/D175N/A190S/V213A/S218I/A226R (enzyme) IIGGTESKPHSRPYMAYLEIVTSNGQSVRCGGFLIRRNFVLTAAHCAGRSITVTLGAHNITEEEDTWQKLEVIKQFRHPKYNTSTLHHDIMLLKLKEKASLTLAVGTLPFPSQFNFVPPGRMCRIAGWGRTGVLKPGSDTLQEVKLRLMDPQACSHSRNFDHNLQLCVGNPRKTKSSFKGDSGGPLLCAGVAQGIASYGRIDAKPPRVFTRISHYRPWINQILQAN | 717 |  |  |  |
| chymase C22S/P38Q/K40L/F41R/V138I/F173Y/D175R/A190S/V213A/S218T/A226R (enzyme) IIGGTESKPHSRPYMAYLEIVTSNGQSLRCGGFLIRRNFVLTAAHCAGRSITVTLGAHNITEEEDTWQKLEVIKQFRHPKYNTSTLHHDIMLLKLKEKASLTLAVGTLPFPSQFNFVPPGRMCRIAGWGRTGVLKPGSDTLQEVKLRLMDPQACSHYRRFDHNLQLCVGNPRKTKSSFKGDSGGPLLCAGVAQGIASYGRTDAKPPRVFTRISHYRPWINQILQAN | 223 |  |  |  |
| chymase C22S/L99R/F173L/K192R/Y215H/R217T/S218V/A226R (enzyme) IIGGTESKPHSRPYMAYLEIVTSNGPSKFCGGFLIRRNFVLTAAHCAGRSITVTLGAHNITEEEDTWQKLEVIKQFRHPKYNTSTRHHDIMLLKLKEKASLTLAVGTLPFPSQFNFVPPGRMCRVAGWGRTGVLKPGSDTLQEVKLRLMDPQACSHLRDFDHNLQLCVGNPRKTKSAFRGDSGGPLLCAGVAQGIVSHGTVDAKPPRVFTRISHYRPWINQILQAN | 7770 | 2290 | 4380 | 7590 |
